Reference: publication PMC5014761

Molecular target: Δ25 FLAG-MRNIP (human) (UniProt Q6NTE8)
Assay: co-IP; 1 mg whole-cell extract (20 mM Tris-HCl pH 7.5, 150 mM NaCl, 1% Triton X-100, 1 mM DTT, 1 mM EDTA, Benzonase) with M2 anti-FLAG beads 16 hr at 4°C; eluted with FLAG peptide or by heating; immunoblot; HEK293 stable, tetracycline-inducible or transiently transfected cells; in Figure 2D cells exposed to the indicated doses of IR

UniProt Q6NTE8, sequence (Q6NTE8 whole entry, stated change not applied): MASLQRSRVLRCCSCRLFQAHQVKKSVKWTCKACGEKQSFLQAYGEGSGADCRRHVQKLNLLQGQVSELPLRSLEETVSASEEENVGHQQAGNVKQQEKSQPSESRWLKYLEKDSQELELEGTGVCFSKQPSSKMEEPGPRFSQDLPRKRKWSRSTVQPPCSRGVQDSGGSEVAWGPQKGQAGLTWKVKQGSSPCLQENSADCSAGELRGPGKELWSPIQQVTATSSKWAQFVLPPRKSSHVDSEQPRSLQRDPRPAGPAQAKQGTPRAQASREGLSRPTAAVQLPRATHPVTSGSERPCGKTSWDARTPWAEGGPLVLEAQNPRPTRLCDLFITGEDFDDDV

Substance the MRN complex has a percent reduced binding compared to WT MRNIP of 50 to 70%.
